What was measured:
[1] = molecular target: HLA-B*0702 (human); assay: competition with 125I-labelled probe peptide for purified HLA, gel filtration
[2] = molecular target: T1, HLA-A*0101 (human); assay: competition with 125I-labelled probe peptide for purified HLA-A*0101, gel filtration; relative to standard peptide
T1 construct: also called HLA-A1

GPLPAARPA [HER2/neu peptide, position 1155, 9 amino acids] was tested, and the relative binding ratio [1] was 0.09 ratio (IC50 of standard / IC50 of test peptide).

In the case of IPDLLEKGERL [HER2/neu peptide, position 931, 11 amino acids], the relative binding ratio [1] is reported as < 0.0002 ratio (IC50 of standard / IC50 of test peptide).

For LPTNASLSFL (also called Her2/neu.65) [HER2/neu peptide, position 65, 10 amino acids], the relative binding ratio [1] was 0.019 ratio (IC50 of standard / IC50 of test peptide).

In the case of CPSGVKPDL [HER2/neu peptide, position 600, 9 amino acids], the relative binding ratio [1] is reported as 0.014 ratio (IC50 of standard / IC50 of test peptide).

CPYNYLSTDV [HER2/neu peptide, position 299, 10 amino acids] was tested, and the relative binding ratio [1] was 0.0016 ratio (IC50 of standard / IC50 of test peptide).

With CPLHNQEVTA [HER2/neu peptide, position 315, 10 amino acids] the relative binding ratio [1] was 0.0001 ratio (IC50 of standard / IC50 of test peptide).

For LPTDCCHEQCA [HER2/neu peptide, position 231, 11 amino acids], the relative binding ratio [1] was < 0.0003 ratio (IC50 of standard / IC50 of test peptide).

With LPESFDGDPA [HER2/neu peptide, position 377, 10 amino acids] the relative binding ratio [1] was 0.0001 ratio (IC50 of standard / IC50 of test peptide).

LPTHDPSPL [HER2/neu peptide, position 1101, 9 amino acids] was tested, and the relative binding ratio [1] was 0.046 ratio (IC50 of standard / IC50 of test peptide).

LPSETDGYV [HER2/neu peptide, position 1120, 9 amino acids] was tested, and the relative binding ratio [1] was 0.0002 ratio (IC50 of standard / IC50 of test peptide).

With APQPHPPPA [HER2/neu peptide, position 1204, 9 amino acids] the relative binding ratio [1] was 0.0056 ratio (IC50 of standard / IC50 of test peptide).

With HPPPAFSPA [HER2/neu peptide, position 1208, 9 amino acids] the relative binding ratio [1] was 0.0093 ratio (IC50 of standard / IC50 of test peptide).

With APSEGAGSDV [HER2/neu peptide, position 1076, 10 amino acids] the relative binding ratio [1] was 0.0002 ratio (IC50 of standard / IC50 of test peptide).

For DPLNNTTPV [HER2/neu peptide, position 121, 9 amino acids], the relative binding ratio [1] was 0.0002 ratio (IC50 of standard / IC50 of test peptide).

With IPDGENVKI [HER2/neu peptide, position 740, 9 amino acids] the relative binding ratio [1] was 0.0001 ratio (IC50 of standard / IC50 of test peptide).

For KPYDGIPAREI [HER2/neu peptide, position 921, 11 amino acids], the relative binding ratio [1] was 0.043 ratio (IC50 of standard / IC50 of test peptide).

With HPPPAFSPAF [HER2/neu peptide, position 1208, 10 amino acids] the relative binding ratio [1] was 0.0018 ratio (IC50 of standard / IC50 of test peptide).

In the case of GPASPLDSTF [HER2/neu peptide, position 995, 10 amino acids], the relative binding ratio [1] is reported as 0.051 ratio (IC50 of standard / IC50 of test peptide).

IPVAIKVL [HER2/neu peptide, position 748, 8 amino acids] was tested, and the relative binding ratio [1] was 0.012 ratio (IC50 of standard / IC50 of test peptide).

APSEGAGSDVF [HER2/neu peptide, position 1076, 11 amino acids] was tested, and the relative binding ratio [1] was 0.0006 ratio (IC50 of standard / IC50 of test peptide).

In the case of APLQPEQLQVF [HER2/neu peptide, position 390, 11 amino acids], the relative binding ratio [1] is reported as 0.0011 ratio (IC50 of standard / IC50 of test peptide).

For EPLTPSGA [HER2/neu peptide, position 698, 8 amino acids], the relative binding ratio [1] was < 0.0002 ratio (IC50 of standard / IC50 of test peptide).

For CSKPCARVCY [HER2/neu peptide, position 334, 10 amino acids], the “relative binding ratio (IC50 of standard peptide / IC50 of test peptide)” value [2] was 0.0016 relative binding ratio.

With LPAARPAGATL [HER2/neu peptide, position 1157, 11 amino acids] the relative binding ratio [1] was 0.014 ratio (IC50 of standard / IC50 of test peptide).

With DPQRFVVI [HER2/neu peptide, position 982, 8 amino acids] the relative binding ratio [1] was < 0.0006 ratio (IC50 of standard / IC50 of test peptide).

For EPLTPSGAM [HER2/neu peptide, position 698, 9 amino acids], the relative binding ratio [1] was 0.011 ratio (IC50 of standard / IC50 of test peptide).

EADQCVACAHY (also called Her2/neu.580) [HER2/neu peptide, position 580, 11 amino acids] was tested, and the “relative binding ratio (IC50 of standard peptide / IC50 of test peptide)” value [2] was 0.1 relative binding ratio.

With CPLHNQEV [HER2/neu peptide, position 315, 8 amino acids] the relative binding ratio [1] was < 0.0006 ratio (IC50 of standard / IC50 of test peptide).

With KPCARVCYGL (also called Her2/neu.336) [HER2/neu peptide, position 336, 10 amino acids] the relative binding ratio [1] was 0.037 ratio (IC50 of standard / IC50 of test peptide).

In the case of MPNPEGRY [HER2/neu peptide, position 282, 8 amino acids], the relative binding ratio [1] is reported as < 0.0006 ratio (IC50 of standard / IC50 of test peptide).

In the case of CPDPAPGAGGM [HER2/neu peptide, position 1032, 11 amino acids], the relative binding ratio [1] is reported as < 0.0002 ratio (IC50 of standard / IC50 of test peptide).

For GPEADQCVACA [HER2/neu peptide, position 578, 11 amino acids], the relative binding ratio [1] was < 0.0003 ratio (IC50 of standard / IC50 of test peptide).

For DPAPGAGGMV [HER2/neu peptide, position 1034, 10 amino acids], the relative binding ratio [1] was 0.0002 ratio (IC50 of standard / IC50 of test peptide).

With KPCARVCY [HER2/neu peptide, position 336, 8 amino acids] the relative binding ratio [1] was < 0.0006 ratio (IC50 of standard / IC50 of test peptide).

With CPAEQRASPL (also called Her2/neu.642) [HER2/neu peptide, position 642, 10 amino acids] the relative binding ratio [1] was 0.15 ratio (IC50 of standard / IC50 of test peptide).

CPSGVKPDLSY (also called Her2/neu.600) [HER2/neu peptide, position 600, 11 amino acids] was tested, and the relative binding ratio [1] was 0.03 ratio (IC50 of standard / IC50 of test peptide).

For LPSETDGY [HER2/neu peptide, position 1120, 8 amino acids], the relative binding ratio [1] was < 0.0006 ratio (IC50 of standard / IC50 of test peptide).

For GPLPAARPAGA [HER2/neu peptide, position 1155, 11 amino acids], the relative binding ratio [1] was 0.016 ratio (IC50 of standard / IC50 of test peptide).

With GPEADQCVA [HER2/neu peptide, position 578, 9 amino acids] the relative binding ratio [1] was 0.0001 ratio (IC50 of standard / IC50 of test peptide).

For DPAPGAGGM [HER2/neu peptide, position 1034, 9 amino acids], the relative binding ratio [1] was 0.0001 ratio (IC50 of standard / IC50 of test peptide).

For AFSPAFDNLYY [HER2/neu peptide, position 1212, 11 amino acids], the “relative binding ratio (IC50 of standard peptide / IC50 of test peptide)” value [2] was 0.014 relative binding ratio.

With LPDLSVFQNL [HER2/neu peptide, position 419, 10 amino acids] the relative binding ratio [1] was 0.0003 ratio (IC50 of standard / IC50 of test peptide).

For DMGDLVDAEEY [HER2/neu peptide, position 1013, 11 amino acids], the “relative binding ratio (IC50 of standard peptide / IC50 of test peptide)” value [2] was 0.0027 relative binding ratio.

ASPLDSTFY [HER2/neu peptide, position 997, 9 amino acids] was tested, and the “relative binding ratio (IC50 of standard peptide / IC50 of test peptide)” value [2] was 0.029 relative binding ratio.

For LPAARPAGA [HER2/neu peptide, position 1157, 9 amino acids], the relative binding ratio [1] was 0.0027 ratio (IC50 of standard / IC50 of test peptide).

In the case of LPREYVNA [HER2/neu peptide, position 550, 8 amino acids], the relative binding ratio [1] is reported as 0.0012 ratio (IC50 of standard / IC50 of test peptide).

In the case of IPAREIPDL [HER2/neu peptide, position 926, 9 amino acids], the relative binding ratio [1] is reported as 0.0006 ratio (IC50 of standard / IC50 of test peptide).

GPEADQCV [HER2/neu peptide, position 578, 8 amino acids] was tested, and the relative binding ratio [1] was < 0.0006 ratio (IC50 of standard / IC50 of test peptide).

With LPPGAASTQV [HER2/neu peptide, position 16, 10 amino acids] the relative binding ratio [1] was 0.0002 ratio (IC50 of standard / IC50 of test peptide).

ETHLDMLRHLY (also called Her2/neu.40) [HER2/neu peptide, position 40, 11 amino acids] was tested, and the “relative binding ratio (IC50 of standard peptide / IC50 of test peptide)” value [2] was 0.28 relative binding ratio.

With GPKHSDCL [HER2/neu peptide, position 246, 8 amino acids] the relative binding ratio [1] was 0.0092 ratio (IC50 of standard / IC50 of test peptide).

ASCVTACPY (also called Her2/neu.293) [HER2/neu peptide, position 293, 9 amino acids] was tested, and the “relative binding ratio (IC50 of standard peptide / IC50 of test peptide)” value [2] was 0.055 relative binding ratio.

In the case of KPDLSYMPI (also called Her2/neu.605) [HER2/neu peptide, position 605, 9 amino acids], the relative binding ratio [1] is reported as 0.072 ratio (IC50 of standard / IC50 of test peptide).

With GPTQCVNCSQF [HER2/neu peptide, position 524, 11 amino acids] the relative binding ratio [1] was 0.0005 ratio (IC50 of standard / IC50 of test peptide).

ETLEEITGY [HER2/neu peptide, position 401, 9 amino acids] was tested, and the “relative binding ratio (IC50 of standard peptide / IC50 of test peptide)” value [2] was 0.043 relative binding ratio.

For KPDLSYMPIW [HER2/neu peptide, position 605, 10 amino acids], the relative binding ratio [1] was 0.0001 ratio (IC50 of standard / IC50 of test peptide).

In the case of GPGPTQCV [HER2/neu peptide, position 522, 8 amino acids], the relative binding ratio [1] is reported as < 0.0006 ratio (IC50 of standard / IC50 of test peptide).

In the case of GPASPLDSTFY [HER2/neu peptide, position 995, 11 amino acids], the relative binding ratio [1] is reported as 0.0036 ratio (IC50 of standard / IC50 of test peptide).

With AFSPAFDNLY [HER2/neu peptide, position 1212, 10 amino acids] the “relative binding ratio (IC50 of standard peptide / IC50 of test peptide)” value [2] was 0.001 relative binding ratio.

For CPINCTHSCV [HER2/neu peptide, position 626, 10 amino acids], the relative binding ratio [1] was 0.0002 ratio (IC50 of standard / IC50 of test peptide).

For IPDGENVKIPV [HER2/neu peptide, position 740, 11 amino acids], the relative binding ratio [1] was 0.0023 ratio (IC50 of standard / IC50 of test peptide).

For CPDPAPGA [HER2/neu peptide, position 1032, 8 amino acids], the relative binding ratio [1] was < 0.0002 ratio (IC50 of standard / IC50 of test peptide).

With DPASNTAPL [HER2/neu peptide, position 384, 9 amino acids] the relative binding ratio [1] was 0.0004 ratio (IC50 of standard / IC50 of test peptide).

With APQPHPPPAF [HER2/neu peptide, position 1204, 10 amino acids] the relative binding ratio [1] was 0.053 ratio (IC50 of standard / IC50 of test peptide).

In the case of LPASPETHLDM [HER2/neu peptide, position 35, 11 amino acids], the relative binding ratio [1] is reported as < 0.0002 ratio (IC50 of standard / IC50 of test peptide).

In the case of LPASPETHL [HER2/neu peptide, position 35, 9 amino acids], the relative binding ratio [1] is reported as 0.0002 ratio (IC50 of standard / IC50 of test peptide).

For DPSPLQRY [HER2/neu peptide, position 1105, 8 amino acids], the relative binding ratio [1] was < 0.0006 ratio (IC50 of standard / IC50 of test peptide).

In the case of IPAREIPDLL [HER2/neu peptide, position 926, 10 amino acids], the relative binding ratio [1] is reported as 0.0004 ratio (IC50 of standard / IC50 of test peptide).

With GPKHSDCLACL [HER2/neu peptide, position 246, 11 amino acids] the relative binding ratio [1] was 0.0006 ratio (IC50 of standard / IC50 of test peptide).

LPSETDGYVA [HER2/neu peptide, position 1120, 10 amino acids] was tested, and the relative binding ratio [1] was 0.0001 ratio (IC50 of standard / IC50 of test peptide).

For HPECQPQNGSV [HER2/neu peptide, position 564, 11 amino acids], the relative binding ratio [1] was < 0.0002 ratio (IC50 of standard / IC50 of test peptide).

With APLTCSPQPEY [HER2/neu peptide, position 1129, 11 amino acids] the relative binding ratio [1] was < 0.0002 ratio (IC50 of standard / IC50 of test peptide).
